In paper PMC11574045, “A cofactor-induced repressive type of transcription factor condensation can be induced by synthetic peptides to suppress tumorigenesis” (The EMBO Journal, 2024):

B1: TLE2 (protein, UniProt Q04725 1-743, looked up)
Transducin-like enhancer …: MYPQGRHPTPLQSGQPFKFSILEICDRIKEEFQFLQAQYHSLKLECEKLASEKTEMQRHYVMYYEMSYGLNIEMHKQAEIVKRLSGICAQIIPFLTQEHQQQVLQAVERAKQVTVGELNSLIGQQLQPLSHHAPPVPLTPRPAGLVGGSATGLLALSGALAAQAQLAAAVKEDRAGVEAEGSRVERAPSRSASPSPPESLVEEERPSGPGGGGKQRADEKEPSGPYESDEDKSDYNLVVDEDQPSEPPSPATTPCGKVPICIPARRDLVDSPASLASSLGSPLPRAKELILNDLPASTPASKSCDSSPPQDASTPGPSSASHLCQLAAKPAPSTDSVALRSPLTLSSPFTTSFSLGSHSTLNGDLSVPSSYVSLHLSPQVSSSVVYGRSPVMAFESHPHLRGSSVSSSLPSIPGGKPAYSFHVSADGQMQPVPFPSDALVGAGIPRHARQLHTLAHGEVVCAVTISGSTQHVYTGGKGCVKVWDVGQPGAKTPVAQLDCLNRDNYIRSCKLLPDGRSLIVGGEASTLSIWDLAAPTPRIKAELTSSAPACYALAVSPDAKVCFSCCSDGNIVVWDLQNQTMVRQFQGHTDGASCIDISDYGTRLWTGGLDNTVRCWDLREGRQLQQHDFSSQIFSLGHCPNQDWLAVGMESSNVEILHVRKPEKYQLHLHESCVLSLKFASCGRWFVSTGKDNLLNAWRTPYGASIFQSKESSSVLSCDISRNNKYIVTGSGDKKATVYEVVY
B2: THAP4 (protein, UniProt Q8WY91 1-577, looked up)
Peroxynitrite isomerase THAP4: MVICCAAVNCSNRQGKGEKRAVSFHRFPLKDSKRLIQWLKAVQRDNWTPTKYSFLCSEHFTKDSFSKRLEDQHRLLKPTAVPSIFHLTEKKRGAGGHGRTRRKDASKATGGVRGHSSAATSRGAAGWSPSSSGNPMAKPESRRLKQAALQGEATPRAAQEAASQEQAQQALERTPGDGLATMVAGSQGKAEASATDAGDESATSSIEGGVTDKSGISMDDFTPPGSGACKFIGSLHSYSFSSKHTRERPSVPREPIDRKRLKKDVEPSCSGSSLGPDKGLAQSPPSSSLTATPQKPSQSPSAPPADVTPKPATEAVQSEHSDASPMSINEVILSASGACKLIDSLHSYCFSSRQNKSQVCCLREQVEKKNGELKSLRQRVSRSDSQVRKLQEKLDELRRVSVPYPSSLLSPSREPPKMNPVVEPLSWMLGTWLSDPPGAGTYPTLQPFQYLEEVHISHVGQPMLNFSFNSFHPDTRKPMHRECGFIRLKPDTNKVAFVSAQNTGVVEVEEGEVNGQELCIASHSIARISFAKEPHVEQITRKFRLNSEGKLEQTVSMATTTQPMTQHLHVTYKKVTP
B3: THRB (protein, UniProt P10828 1-461, looked up)
Thyroid hormone receptor beta: MTPNSMTENGLTAWDKPKHCPDREHDWKLVGMSEACLHRKSHSERRSTLKNEQSSPHLIQTTWTSSIFHLDHDDVNDQSVSSAQTFQTEEKKCKGYIPSYLDKDELCVVCGDKATGYHYRCITCEGCKGFFRRTIQKNLHPSYSCKYEGKCVIDKVTRNQCQECRFKKCIYVGMATDLVLDDSKRLAKRKLIEENREKRRREELQKSIGHKPEPTDEEWELIKTVTEAHVATNAQGSHWKQKRKFLPEDIGQAPIVNAPEGGKVDLEAFSHFTKIITPAITRVVDFAKKLPMFCELPCEDQIILLKGCCMEIMSLRAAVRYDPESETLTLNGEMAVTRGQLKNGGLGVVSDAIFDLGMSLSSFNLDDTEVALLQAVLLMSSDRPGLACVERIEKYQDSFLLAFEHYINYRKHHVTHFWPKLLMKVTDLRMIGACHASRFLHMKVECPTELFPPLFLEVFED
B4: TOX (protein, UniProt O94900 1-526, looked up)
Thymocyte …: MDVRFYPPPAQPAAAPDAPCLGPSPCLDPYYCNKFDGENMYMSMTEPSQDYVPASQSYPGPSLESEDFNIPPITPPSLPDHSLVHLNEVESGYHSLCHPMNHNGLLPFHPQNMDLPEITVSNMLGQDGTLLSNSISVMPDIRNPEGTQYSSHPQMAAMRPRGQPADIRQQPGMMPHGQLTTINQSQLSAQLGLNMGGSNVPHNSPSPPGSKSATPSPSSSVHEDEGDDTSKINGGEKRPASDMGKKPKTPKKKKKKDPNEPQKPVSAYALFFRDTQAAIKGQNPNATFGEVSKIVASMWDGLGEEQKQVYKKKTEAAKKEYLKQLAAYRASLVSKSYSEPVDVKTSQPPQLINSKPSVFHGPSQAHSALYLSSHYHQQPGMNPHLTAMHPSLPRNIAPKPNNQMPVTVSIANMAVSPPPPLQISPPLHQHLNMQQHQPLTMQQPLGNQLPMQVQSALHSPTMQQGFTLQPDYQTIINPTSTAAQVVTQAMEYVRSGCRNPPPQPVDWNNDYCSSGGMQRDKALYLT
B5: THAP8 (protein, UniProt Q8NA92 1-274, looked up)
THAP domain-containing …: MPKYCRAPNCSNTAGRLGADNRPVSFYKFPLKDGPRLQAWLQHMGCEHWVPSCHQHLCSEHFTPSCFQWRWGVRYLRPDAVPSIFSRGPPAKSQRRTRSTQKPVSPPPPLQKNTPLPQSPAIPVSGPVRLVVLGPTSGSPKTVATMLLTPLAPAPTPERSQPEVPAQQAQTGLGPVLGALQRRVRRLQRCQERHQAQLQALERLAQQLHGESLLARARRGLQRLTTAQTLGPEESQTFTIICGGPDIAMVLAQDPAPATVDAKPELLDTRIPSA
B6: THAP1 (protein, UniProt Q9NVV9 1-213, looked up)
THAP domain-containing …: MVQSCSAYGCKNRYDKDKPVSFHKFPLTRPSLCKEWEAAVRRKNFKPTKYSSICSEHFTPDCFKRECNNKLLKENAVPTIFLCTEPHDKKEDLLEPQEQLPPPPLPPPVSQVDAAIGLLMPPLQTPVNLSVFCDHNYTVEDTMHQRKRIHQLEQQVEKLRKKLKTAQQRCRRQERQLEKLKEVVHFQKEKDDVSERGYVILPNDYFEIVEVPA
B7: THAP10 (protein, UniProt Q9P2Z0 1-257, looked up)
THAP domain-containing …: MPARCVAAHCGNTTKSGKSLFRFPKDRAVRLLWDRFVRGCRADWYGGNDRSVICSDHFAPACFDVSSVIQKNLRFSQRLRLVAGAVPTLHRVPAPAPKRGEEGDQAGRLDTRGELQAARHSEAAPGPVSCTRPRAGKQAAASQITCENELVQTQPHADNPSNTVTSVPTHCEEGPVHKSTQISLKRPRHRSVGIQAKVKAFGKRLCNATTQTEELWSRTSSLFDIYSSDSETDTDWDIKSEQSDLSYMAVQVKEETC
B8: BLZF1 (protein, UniProt Q9H2G9 1-400, looked up)
Golgin-45: MTTKNLETKVTVTSSPIRGAGDGMETEEPPKSVEVTSGVQSRKHHSLQSPWKKAVPSESPGVLQLGKMLTEKAMEVKAVRILVPKAAITHDIPNKNTKVKSLGHHKGEFLGQSEGVIEPNKELSEVKNVLEKLKNSERRLLQDKEGLSNQLRVQTEVNRELKKLLVASVGDDLQYHFERLAREKNQLILENEALGRNTAQLSEQLERMSIQCDVWRSKFLASRVMADELTNSRAALQRQNRDAHGAIQDLLSEREQFRQEMIATQKLLEELLVSLQWGREQTYSPSVQPHSTAELALTNHKLAKAVNSHLLGNVGINNQKKIPSTVEFCSTPAEKMAETVLRILDPVTCKESSPDNPFFESSPTTLLATKKNIGRFHPYTRYENITFNCCNHCRGELIAL
B9: TOB1 (protein, UniProt P50616 1-345, looked up)
Protein Tob1: MQLEIQVALNFIISYLYNKLPRRRVNIFGEELERLLKKKYEGHWYPEKPYKGSGFRCIHIGEKVDPVIEQASKESGLDIDDVRGNLPQDLSVWIDPFEVSYQIGEKGPVKVLYVDDNNENGCELDKEIKNSFNPEAQVFMPISDPASSVSSSPSPPFGHSAAVSPTFMPRSTQPLTFTTATFAATKFGSTKMKNSGRSNKVARTSPINLGLNVNDLLKQKAISSSMHSLYGLGLGSQQQPQQQQQPAQPPPPPPPPQQQQQQKTSALSPNAKEFIFPNMQGQGSSTNGMFPGDSPLNLSPLQYSNAFDVFAAYGGLNEKSFVDGLNFSLNNMQYSNQQFQPVMAN
B10: TGIF2LY (protein, UniProt Q8IUE0 1-185, looked up)
Homeobox protein TGIF2LY: MEAAADGPAETQSPVEKDSPAKTQSPAQDTSIMSRNNADTGRVLALPEHKKKRKGNLPAESVKILRDWMYKHRFKAYPSEEEKQMLSEKTNLSLLRISNWFINARRRILPDMLQQRRNDPIIGHKTGKDAHATHLQSTEASVPAKSGPVVQTMYKACPCGPCQRARCQERSNQIRSRPLARSSPE
B11: TIEG (protein, UniProt Q13118 1-480, looked up)
Krueppel-like factor 10: MLNFGASLQQTAEERMEMISERPKESMYSWNKTAEKSDFEAVEALMSMSCSWKSDFKKYVENRPVTPVSDLSEEENLLPGTPDFHTIPAFCLTPPYSPSDFEPSQVSNLMAPAPSTVHFKSLSDTAKPHIAAPFKEEEKSPVSAPKLPKAQATSVIRHTADAQLCNHQTCPMKAASILNYQNNSFRRRTHLNVEAARKNIPCAAVSPNRSKCERNTVADVDEKASAALYDFSVPSSETVICRSQPAPVSPQQKSVLVSPPAVSAGGVPPMPVICQMVPLPANNPVVTTVVPSTPPSQPPAVCPPVVFMGTQVPKGAVMFVVPQPVVQSSKPPVVSPNGTRLSPIAPAPGFSPSAAKVTPQIDSSRIRSHICSHPGCGKTYFKSSHLKAHTRTHTGEKPFSCSWKGCERRFARSDELSRHRRTHTGEKKFACPMCDRRFMRSDHLTKHARRHLSAKKLPNWQMEVSKLNDIALPPTPAPTQ
B12: THAP6 (protein, UniProt Q8TBB0 1-222, looked up)
THAP domain-containing …: MVKCCSAIGCASRCLPNSKLKGLTFHVFPTDENIKRKWVLAMKRLDVNAAGIWEPKKGDVLCSRHFKKTDFDRSAPNIKLKPGVIPSIFDSPYHLQGKREKLHCRKNFTLKTVPATNYNHHLVGASSCIEEFQSQFIFEHSYSVMDSPKKLKHKLDHVIGELEDTKESLRNVLDREKRFQKSLRKTIRELKDECLISQETANRLDTFCWDCCQESIEQDYIS
B13: THRA (protein, UniProt P10827 1-490, looked up)
Thyroid hormone receptor alpha: MEQKPSKVECGSDPEENSARSPDGKRKRKNGQCSLKTSMSGYIPSYLDKDEQCVVCGDKATGYHYRCITCEGCKGFFRRTIQKNLHPTYSCKYDSCCVIDKITRNQCQLCRFKKCIAVGMAMDLVLDDSKRVAKRKLIEQNRERRRKEEMIRSLQQRPEPTPEEWDLIHIATEAHRSTNAQGSHWKQRRKFLPDDIGQSPIVSMPDGDKVDLEAFSEFTKIITPAITRVVDFAKKLPMFSELPCEDQIILLKGCCMEIMSLRAAVRYDPESDTLTLSGEMAVKREQLKNGGLGVVSDAIFELGKSLSAFNLDDTEVALLQAVLLMSTDRSGLLCVDKIEKSQEAYLLAFEHYVNHRKHNIPHFWPKLLMKEREVQSSILYKGAAAEGRPGGSLGVHPEGQQLLGMHVVQGPQVRQLEQQLGEAGSLQGPVLQHQSPKSPQQRLLELLHRSGILHARAVCGEDDSSEADSPSSSEEEPEVCEDLAGNAASP

These molecules were tested on HEK293FT cells transfected with TF library (assay: Screening of TF condensates based on fluorescent puncta). Conditions: Figure 1B numerical data; TF library screen, one value per transcriptional factor.
Type: cell-based
In short: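 TF plasmids (final 1.6 μg/ml) reverse-transfected with PEI (4.8 μg/ml) into HEK293FT cells; after 60 h, cells cultured ±glucose for 12 h, fixed in 4% PFA and immunostained for Flag or GAL4 tags with Alexa 488 secondaries. Puncta scored by automated imaging of 50 random fields per well.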
In the case of B1, the “Z score of condensed fraction” value is reported as 0.1994.
For B2, the “Z score of condensed fraction” value was -0.8956.
B3 was tested, and the “Z score of condensed fraction” value was -0.3414.
For B4, the “Z score of condensed fraction” value was -0.4918.
With B5 the “Z score of condensed fraction” value was 1.115.
B6 was tested, and the “Z score of condensed fraction” value was -0.6542.
For B7, the “Z score of condensed fraction” value was 1.236.
In the case of B8, the “Z score of condensed fraction” value is reported as -1.161.
With B9 the “Z score of condensed fraction” value was -0.3688.
B10 was tested, and the “Z score of condensed fraction” value was 1.271.
For B11, the “Z score of condensed fraction” value was 1.047.
With B12 the “Z score of condensed fraction” value was 2.571.
With B13 the “Z score of condensed fraction” value was -0.4575.
